In article PMC7821112 (The New Phytologist, 2020):
Each block holds one molecule with its values, some of them ahead of it.

Tests used:
[1] = biological target: GST‐tagged Ghd7 (Grain number, plant height and heading‐date7) (rice (Oryza sativa)) (UniProt E5RQA1); experiment: pull-down
[2] = biological target: T1, GST‐tagged Ghd7 (Grain number, plant height and heading‐date7) (rice (Oryza sativa), UniProt E5RQA1 1-257); experiment: pull-down
T1 sequence (looked up): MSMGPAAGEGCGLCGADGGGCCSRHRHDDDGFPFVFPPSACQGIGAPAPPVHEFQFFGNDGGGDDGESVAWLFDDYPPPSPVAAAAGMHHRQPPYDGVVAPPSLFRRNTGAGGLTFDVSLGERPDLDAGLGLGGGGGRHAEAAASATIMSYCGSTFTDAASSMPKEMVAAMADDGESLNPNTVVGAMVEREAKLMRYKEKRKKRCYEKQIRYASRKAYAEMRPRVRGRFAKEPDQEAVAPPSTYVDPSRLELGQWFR

stoichiometry N [1]: 1
Molecule: MBP‐tagged Hd1 (Heading date 1) (from UniProt Q9FDX8 1-395) (natural protein)

stoichiometry N [2]: 1
B1: MBP‐tagged DTH8 (Days‐to‐heading on chromosome 8) (natural protein, rice (Oryza sativa), UniProt Q0J7P4 1-297, looked up)
chain: MKSRKSYGHLLSPVGSPPLDNESGEAAAAAAAGGGGCGSSAGYVVYGGGGGGDSPAKEQDRFLPIANVSRIMKRSLPANAKISKESKETVQECVSEFISFVTGEASDKCQREKRKTINGDDLLWAMTTLGFEAYVGPLKSYLNRYREAEGEKADVLGGAGGAAAARHGEGGCCGGGGGGADGVVIDGHYPLAGGLSHSHHGHQQQDGGGDVGLMMGGGDAGVGYNAGAGSTTTAFYAPAATAASGNKAYCGGDGSRVMEFEGIGGEEESGGGGGGGERGFAGHLHGVQWFRLKRNTN
